One assay has as its target T1, mouse IGF-IR (mouse, UniProt Q60751 31-1373).
T1 construct: whole, on cells
Description: cells treated with antibody, IGF-I stimulation, immunoprecipitation of IGF-IR and Western blot. The method, then:
To perform immunoprecipitation experiments, cells were plated in DMEM high glucose media supplemented with L-glutamine (0.29 mg/ml), 10% heat-inactivated FBS, and 500 μg/ml each of geneticin, penicillin and streptomycin to 50% confluence in T25 flasks. 100 μl of an antibody of the invention in Hank's buffered saline solution (HBSS; Gibco BRL) at a concentration of 1 μg/ml was added. The plates were incubated for 30 minutes at 37° C. in an incubator and then stimulated cells with IGF-I at 100 ng/ml for 10 minutes at room temperature. The cells were lysed in RIPA buffer (Harlow and Lane, supra) and immunoprecipitated the IGF-IR with 2 μg of pan-specific SC-713 anti-IGF-IR antibody (Santa Cruz) plus protein A agarose beads for 1 hour at 4° C. The beads were pelleted and washed three times with PBS/T (PBS+0.1% Tween-20) and then boiled in 40 μl Laemmli buffer containing 5% ME.
The samples prepared as described above were then analyzed by Western blot. 12 μl of each sample were loaded per lane on 4-10% gradient Novex™ gels run with 1×MES buffer (Novex™). Gels were run at 150V for 1 hour or at 200V for approximately 30 minutes. The gel was transferred to a membrane in Novex™ transfer buffer with 10% methanol either overnight at 100 mA or for 1-1.5 hours at 250 mA. […]
Background: In western blotting, separated proteins are transferred to a membrane and probed.

The target in assay [1] is T2, human insulin-like growth factor I receptor (IGF-IR) (human, UniProt P08069 31-1367). Description: cell-based or functional assay.
T2 sequence (P08069 31-1367): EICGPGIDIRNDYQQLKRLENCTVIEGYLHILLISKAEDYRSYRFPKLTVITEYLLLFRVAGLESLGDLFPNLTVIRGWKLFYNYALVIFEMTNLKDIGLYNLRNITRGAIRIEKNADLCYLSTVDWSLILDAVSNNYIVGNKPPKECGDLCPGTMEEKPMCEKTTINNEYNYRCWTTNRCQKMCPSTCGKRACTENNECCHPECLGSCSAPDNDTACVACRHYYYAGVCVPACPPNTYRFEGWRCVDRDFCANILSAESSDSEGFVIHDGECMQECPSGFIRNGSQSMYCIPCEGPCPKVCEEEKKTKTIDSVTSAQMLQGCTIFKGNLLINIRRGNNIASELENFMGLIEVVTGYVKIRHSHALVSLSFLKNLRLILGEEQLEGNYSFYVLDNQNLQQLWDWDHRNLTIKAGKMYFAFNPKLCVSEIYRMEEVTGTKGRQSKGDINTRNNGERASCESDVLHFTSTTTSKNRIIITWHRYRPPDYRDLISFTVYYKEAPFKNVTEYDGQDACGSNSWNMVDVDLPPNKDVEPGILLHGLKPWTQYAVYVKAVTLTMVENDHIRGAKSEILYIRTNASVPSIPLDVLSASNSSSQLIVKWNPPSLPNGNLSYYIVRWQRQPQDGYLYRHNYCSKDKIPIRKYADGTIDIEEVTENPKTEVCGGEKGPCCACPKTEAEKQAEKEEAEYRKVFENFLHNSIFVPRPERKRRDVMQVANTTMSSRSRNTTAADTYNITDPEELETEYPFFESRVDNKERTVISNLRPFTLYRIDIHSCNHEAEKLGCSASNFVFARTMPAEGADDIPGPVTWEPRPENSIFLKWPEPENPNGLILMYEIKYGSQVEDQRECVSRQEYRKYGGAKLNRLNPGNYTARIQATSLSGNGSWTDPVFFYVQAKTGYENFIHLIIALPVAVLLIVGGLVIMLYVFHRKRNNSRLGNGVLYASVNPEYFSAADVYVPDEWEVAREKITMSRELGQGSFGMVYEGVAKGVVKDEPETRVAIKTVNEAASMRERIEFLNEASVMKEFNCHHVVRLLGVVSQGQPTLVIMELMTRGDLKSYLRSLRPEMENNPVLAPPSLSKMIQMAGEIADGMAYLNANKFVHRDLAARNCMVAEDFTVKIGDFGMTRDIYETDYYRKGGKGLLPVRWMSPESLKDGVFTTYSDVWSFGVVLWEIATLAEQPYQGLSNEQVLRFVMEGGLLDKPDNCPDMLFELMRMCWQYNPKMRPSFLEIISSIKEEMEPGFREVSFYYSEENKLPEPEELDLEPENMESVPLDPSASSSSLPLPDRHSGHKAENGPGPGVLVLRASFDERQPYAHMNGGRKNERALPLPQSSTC
The next assay has as its target T3, cynomolgus monkey IGF-IR (cynomolgus monkey, UniProt G7P9I7 31-1343).
T3 construct: whole, on cells; also called IGF-IR on cynomolgus tissue culture cells
As to the kind of experiment: flow cytometry, biotinylated antibody on cynomolgus tissue culture cells, half maximal binding. The method, then:
(§1) FACS analysis was performed to determine the affinity of the antibody of the invention for IGF-IR from other animals, particularly the old world monkeys described above. Aliquots of human and monkey cells (cynomolgus) (5×10⁵) were incubated for 1 hour on ice with increasing concentrations of biotinylated anti-IGF-IR antibodies of the invention. The samples were incubated for 30 minutes on ice with streptavidin-conjugated RPE (phycoerythrin). Binding was measured by flow cytometry and analyzed with the histograms of fluorescence intensity (FI2-H) versus cell number (Counts) using CellQuest software. Binding (Kd) was calculated for each antibody from graphs of mean fluorescence intensity versus antibody concentration. In most experiments, binding was measured in cultured human MCF-7 cells and cynomolgus tissue culture cells. Depletion of the antibody was controlled by measuring binding over a range of cell concentrations.

In assay [2] the target is T2, human insulin-like growth factor I …. Description: flow cytometry, biotinylated antibody on human cells (MCF-7), half maximal binding. The method, then: as §1
(In flow cytometry, cells or beads pass a laser one at a time.)

Assay [3] has the same target. As to the kind of experiment: competition with [125I]-IGF-I for binding to IGF-IR-transfected NIH-3T3 cells, scintillation counting. The method, then:
[…] experiments were performed to quantitate the ability of the antibody of the invention to inhibit IGF-I binding to IGF-IR in a cell-based assay. IGF-IR-transfected NIH-3T3 cells (5×10⁴/ml) were plated in 100 μl of DMEM high glucose media supplemented with L-glutamine (0.29 mg/ml), 10% heat-inactivated FBS, and 500 μg/ml each of geneticin, penicillin and streptomycin in 96-well U-bottom plates. The plates were incubated at 37° C., 5% CO₂ overnight to allow cells to attach. The media was decanted from the plates and replaced with 100 μl fresh media per well. For testing, the antibody was diluted in assay media (DMEM high glucose media supplemented with L-glutamine, 10% heat-inactivated FBS, 200 μg/ml BSA and 500 μg/ml each of geneticin, penicillin and streptomycin) to the desired final concentration. All samples were performed in triplicate. The plates were incubated at 37° C. for ten minutes. The [¹²⁵I]-IGF-I was diluted to a concentration of 1 μCi/ml in assay media and added 50 μl per well of the plate. As a control for background radioactivity, cold IGF-I was added to a final concentration of 100 ng/ml. […] The samples were transferred to a scintillation plate, 150 μl OptiPhase Supermix was added and the signal was read using a Wallace MicroBeta counter. […]

T1 sequence (Q60751 31-1373): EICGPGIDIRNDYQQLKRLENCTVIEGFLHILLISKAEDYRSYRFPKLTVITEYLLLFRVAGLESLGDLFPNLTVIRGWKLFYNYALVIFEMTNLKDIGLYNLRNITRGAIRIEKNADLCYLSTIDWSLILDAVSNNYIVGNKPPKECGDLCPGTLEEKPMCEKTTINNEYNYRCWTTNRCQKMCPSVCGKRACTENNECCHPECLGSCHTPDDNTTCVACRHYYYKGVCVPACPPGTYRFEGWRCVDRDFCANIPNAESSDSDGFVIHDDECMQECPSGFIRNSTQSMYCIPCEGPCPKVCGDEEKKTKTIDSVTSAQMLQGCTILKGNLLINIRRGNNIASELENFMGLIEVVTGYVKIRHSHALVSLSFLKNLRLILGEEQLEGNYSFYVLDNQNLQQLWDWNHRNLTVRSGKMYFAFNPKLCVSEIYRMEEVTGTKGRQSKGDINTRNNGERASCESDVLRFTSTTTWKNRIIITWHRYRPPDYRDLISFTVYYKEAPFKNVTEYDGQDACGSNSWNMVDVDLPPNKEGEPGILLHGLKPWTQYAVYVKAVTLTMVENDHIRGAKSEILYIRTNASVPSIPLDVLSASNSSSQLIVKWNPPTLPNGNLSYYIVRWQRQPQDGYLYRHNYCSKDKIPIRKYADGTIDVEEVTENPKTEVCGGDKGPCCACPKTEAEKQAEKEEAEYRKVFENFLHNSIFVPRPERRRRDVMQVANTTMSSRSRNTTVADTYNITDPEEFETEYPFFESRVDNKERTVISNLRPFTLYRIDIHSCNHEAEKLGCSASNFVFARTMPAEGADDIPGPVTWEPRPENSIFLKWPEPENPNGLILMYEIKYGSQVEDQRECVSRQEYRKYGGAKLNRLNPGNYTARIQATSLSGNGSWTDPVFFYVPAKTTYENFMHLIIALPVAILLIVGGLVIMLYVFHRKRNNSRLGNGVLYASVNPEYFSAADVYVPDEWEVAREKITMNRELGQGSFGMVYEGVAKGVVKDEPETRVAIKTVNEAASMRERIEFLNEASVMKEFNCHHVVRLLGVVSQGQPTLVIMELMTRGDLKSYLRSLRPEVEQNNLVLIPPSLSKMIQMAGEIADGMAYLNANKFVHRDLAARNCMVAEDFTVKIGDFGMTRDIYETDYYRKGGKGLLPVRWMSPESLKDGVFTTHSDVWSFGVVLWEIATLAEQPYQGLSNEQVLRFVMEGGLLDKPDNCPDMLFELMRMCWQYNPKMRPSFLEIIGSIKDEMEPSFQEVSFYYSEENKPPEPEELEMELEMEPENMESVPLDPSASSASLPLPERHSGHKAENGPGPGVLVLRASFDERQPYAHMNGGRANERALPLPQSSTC
T3 sequence (G7P9I7 entry or part of it): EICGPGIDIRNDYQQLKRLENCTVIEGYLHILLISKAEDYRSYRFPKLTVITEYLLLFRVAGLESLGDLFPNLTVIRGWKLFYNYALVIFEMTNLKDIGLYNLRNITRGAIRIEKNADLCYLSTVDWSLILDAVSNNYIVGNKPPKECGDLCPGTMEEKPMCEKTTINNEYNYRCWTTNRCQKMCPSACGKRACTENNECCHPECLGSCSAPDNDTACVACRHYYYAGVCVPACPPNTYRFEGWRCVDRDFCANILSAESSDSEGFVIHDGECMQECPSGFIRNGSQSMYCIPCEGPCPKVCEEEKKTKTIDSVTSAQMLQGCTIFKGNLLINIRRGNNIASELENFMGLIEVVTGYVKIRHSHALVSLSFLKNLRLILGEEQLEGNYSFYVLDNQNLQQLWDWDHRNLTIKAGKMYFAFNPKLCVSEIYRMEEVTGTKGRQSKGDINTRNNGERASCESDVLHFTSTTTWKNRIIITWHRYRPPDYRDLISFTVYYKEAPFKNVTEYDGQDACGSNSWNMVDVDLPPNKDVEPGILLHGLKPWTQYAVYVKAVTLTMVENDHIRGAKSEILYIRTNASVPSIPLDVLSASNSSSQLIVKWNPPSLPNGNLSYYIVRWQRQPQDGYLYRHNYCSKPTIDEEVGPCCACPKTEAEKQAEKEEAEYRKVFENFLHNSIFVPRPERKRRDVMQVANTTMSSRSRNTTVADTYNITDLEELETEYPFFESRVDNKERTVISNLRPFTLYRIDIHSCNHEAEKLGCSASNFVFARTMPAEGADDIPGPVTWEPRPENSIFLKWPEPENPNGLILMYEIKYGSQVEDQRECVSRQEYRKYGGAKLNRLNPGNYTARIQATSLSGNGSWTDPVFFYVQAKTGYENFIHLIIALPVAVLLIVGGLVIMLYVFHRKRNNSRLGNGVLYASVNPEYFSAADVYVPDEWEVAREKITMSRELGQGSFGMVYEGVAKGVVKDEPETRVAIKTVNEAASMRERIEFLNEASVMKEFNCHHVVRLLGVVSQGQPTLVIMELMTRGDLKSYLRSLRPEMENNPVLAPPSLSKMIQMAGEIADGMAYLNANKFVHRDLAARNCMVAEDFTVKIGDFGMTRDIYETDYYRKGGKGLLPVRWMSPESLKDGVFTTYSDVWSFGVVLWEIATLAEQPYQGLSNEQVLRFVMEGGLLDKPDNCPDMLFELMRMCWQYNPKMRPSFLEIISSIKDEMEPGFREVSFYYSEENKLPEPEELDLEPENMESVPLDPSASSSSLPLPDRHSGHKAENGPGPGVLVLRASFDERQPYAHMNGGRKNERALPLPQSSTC

B1: anti-IGF-IR antibody 2.12.1fx (antibody, human IgG2, kappa, V domains shown)
VH: QVQLVESGGGLVKPGGSLRLSCAASGFTFSDYYMSWIRQAPGKGLEWVSYISSSGSTRDYADSVKGRFTISRDNAKNSLYLQMNSLRAEDTAVYYCARDGVETTFYYYYYGMDVWGQGTTVTVSS
VL: DIQMTQSPSSLSASVGDRVTITCRASQDIRRDLGWYQQKPGKAPKRLIYAASRLQSGVPSRFSGSGSGTEFTLTISSLQPEDFATYYCLQHNNYPRTFGQGTKVEIKR
notes: also called the antibody of the invention; the antibody of this invention
Consider B1, for which the binding result with mouse IGF-IR was “no binding (tested: 1 µg/ml)”. For the same molecule, the “IC50 of inhibition of IGF-I-induced tyrosine phosphorylation of IGF-IR (ELISA on lysates of IGF-IR-transfected NIH-3T3 cells)” value in assay [1] amounted to 0.42 µg/mL. Also, the Kd (with cynomolgus monkey IGF-IR; in assay [2]) was 0.1 µg/mL throughout. Besides, in assay [3], the IC50 – broadly, the concentration at which inhibition is half-maximal – came out at 0.4 µg/mL.

The values are drawn from patent US20080181891A1 (Pfizer, published 2008).
